Data reported in patent US20050070692A1 (published 2005).

How the values were obtained:
human IL-1β [1] = biological target: T1, human IL-1β (human, UniProt P01584 117-269); experiment: cell-based or functional assay
human IL-1β [2] = biological target: T1, human IL-1β; experiment: BIAcore, antibody captured on protein A CM5 chip, human IL-1β flowed
Experimental: Affinities and specificities of several Hu007 analogs were determined using BIAcore measurements. BIAcore™ is an automated biosensor system that measures molecular interactions. (Karlsson, et al. (1991) J. Immunol. Methods 145: 229-240). In these experiments antibody was immobilized at low density on a BIAcore™ chip. Ethyl-dimethylaminopropyl-carbodiimide (EDC) was used to couple reactive amino groups to protein A to a flow cell of a carboxy-methyl (CM5) BIAcore™ sensor chip. Protein A was diluted in sodium acetate buffer, pH 4.5, and immobilized on a flow cell of a CM5 chip using EDC to yield approximately 1000 response units. Unreacted sites were blocked with ethanolamine. A flow rate of 60 μl/min was used. Multiple binding/elution cycles were performed by injection of 10 μl of a 5 μg/mL Hu007 solution, and heavy chain CDR2 analogs N55D, N55S, N55Q, G56A, and G56V, followed by human IL-1β at decreasing concentrations for each cycle (e.g. 1500, 750, 375, 188, and […]). Elution was performed with glycine-HCl, pH 1.5. BIAevaluation™ was used to analyze the kinetic data. Table 5 depicts the affinities of Hu007 and the various Hu007 analogs for human IL-1β.

porcine IL-1β = biological target: T2, porcine IL-1β (porcine, UniProt P26889 115-267); experiment: BIAcore, antibody captured on anti-IgG CM5 chip, IL-1β flowed
T2 sequence (looked up): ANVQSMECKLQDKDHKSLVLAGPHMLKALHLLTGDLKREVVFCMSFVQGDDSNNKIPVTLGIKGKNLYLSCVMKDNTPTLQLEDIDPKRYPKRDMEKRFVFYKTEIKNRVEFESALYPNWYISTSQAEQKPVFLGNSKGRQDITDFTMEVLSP
Experimental: (§1) Affinities and specificities of both Hu007 and Mu007 were determined using BlAcore measurements. BIAcore™ is an automated biosensor system that measures molecular interactions. (Karlsson, et al. (1991) J. Immunol. Methods 145: 229-240). In these experiments antibody was immobilized at low density on a BIAcore™ chip. Ethyl-dimethylaminopropyl-carbodiimide (EDC) was used to couple reactive amino groups to purified goat anti-human IgG or goat anti-rabbit IgG to a flow cell of a carboxy-methyl (CM5) BIAcore™ sensor chip. Goat IgG was diluted in sodium acetate buffer, pH 4.0, and immobilized on a flow cell of a CM5 chip using EDC to yield 1000 response units. Unreacted sites were blocked with ehanolamine. A flow rate of 60 μL/min was used. Multiple binding/elution cycles were performed by injection a 100 μL solution of 15 μg/mL Mu007 or Hu007 followed by human IL-1β, mouse IL-1β, rat IL-1β, cynomolgus monkey IL-1β, porcine IL-1β, human IL-1 receptor antagonist, and human IL-1α at decreasing concentrations for each cycle (e.g., 1500, 750, 375, 188, 94, 47, 23.5, 12, and 0 picomolar). Elution was performed with glycine-HCl, pH 1.5. BIAevaluation™ was used to analyze the kinetic data. Table 2 depicts the affinities of Hu007 and Mu007 for human and cynomolgus IL-1β. […] Cynomolgus and porcine IL-1β had 100% binding to Hu007 relative to human IL-1β.

human IL-1β [3] = biological target: T1, human IL-1β; experiment: as above
Experimental: as §1

cynomolgus monkey IL-1β = biological target: T3, cynomolgus monkey IL-1β (cynomolgus monkey, UniProt P79182 117-268); experiment: as above
T3 construct: also called Cynomolgus IL-1β
T3 sequence (looked up): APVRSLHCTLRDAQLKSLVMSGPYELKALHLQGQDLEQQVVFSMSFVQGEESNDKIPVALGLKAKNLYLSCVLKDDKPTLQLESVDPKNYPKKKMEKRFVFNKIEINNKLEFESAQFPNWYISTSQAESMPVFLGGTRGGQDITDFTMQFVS
Experimental: as §1

- IC50, inhibition of IL-1β stimulated proliferation of T1165.17 cells (3H-thymidine), average of three experiments (human IL-1β [1]): 0.48 nM
- efficacy relative to Mu007 in the murine model of human IL-1β induced IL-6 (human IL-1β [1]): ~0.33 fraction of Mu007
- Kd (human IL-1β [2]): 0.0105 nM
- binding relative to human IL-1β (porcine IL-1β): 100%
- Kd (human IL-1β [3]): 0.0102 nM
- Kd (cynomolgus monkey IL-1β): 0.0104 nM
- binding relative to human IL-1β (cynomolgus monkey IL-1β): 100%
B1: humanized antibody Hu007 (antibody, human IgG1, kappa, V domains shown)
VH: QVQLVQSGAEVKKPGASVKVSCKVSGYTFSRYWIEWVRQAPGKGLEWIGEILPGNGNINYNEKFKGKATITADTSTDTAYMELSSLRSEDTAVYYCSTIYYDYDQGFTYWGQGTLVTVSS
VL: DIQMTQSPSSLSASVGDRVTITCKASQDIDRYLSWFQQKPGKAPKSLIYRVKRLVDGVPSRFSGSASGTDYTLTISSLQPEDFATYYCLQYDEFPYTFGQGTKLEIKR
notes: Human IgG1 kappa; also called WT; Hu007 WT
